Data on 1 molecule can be found in PMC8998617 (2022).

In the assay the target is recombinant human full-length Tau (2N4R, 441 aa), non-phosphorylated (human, UniProt P10636-8 1-441). Description: SPR.

B1: Nup98-FG/FS (full F/S mutant of Nup98-FG) (domain or fragment)
chain: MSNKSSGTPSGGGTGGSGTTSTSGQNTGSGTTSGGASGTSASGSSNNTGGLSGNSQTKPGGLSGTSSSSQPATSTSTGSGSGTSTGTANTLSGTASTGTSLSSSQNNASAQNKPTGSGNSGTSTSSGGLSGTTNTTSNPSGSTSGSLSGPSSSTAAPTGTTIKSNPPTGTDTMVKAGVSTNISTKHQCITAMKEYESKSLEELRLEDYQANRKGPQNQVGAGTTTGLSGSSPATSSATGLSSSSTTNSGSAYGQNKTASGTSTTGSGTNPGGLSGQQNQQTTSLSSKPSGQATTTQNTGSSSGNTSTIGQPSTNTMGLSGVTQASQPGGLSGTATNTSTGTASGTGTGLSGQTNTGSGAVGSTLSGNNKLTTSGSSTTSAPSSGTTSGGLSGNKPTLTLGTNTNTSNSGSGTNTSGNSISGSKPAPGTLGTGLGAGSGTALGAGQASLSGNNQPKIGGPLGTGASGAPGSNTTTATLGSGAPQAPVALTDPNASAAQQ
Usually Kd stands for the concentration at which binding is half-saturated. On to B1, for which the dissociation constant (Kd) amounted to 360 nM.
